In the nanobody polyreactivity screen of Harvey et al. (2022):

Assay: yeast display, Sf9 membrane polyspecificity reagent, FACS + sequencing; frameworks hold sequencing errors
Method in brief: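 In a synthetic yeast display library (Saccharomyces cerevisiae BJ5465), nanobody expression was induced with galactose for 36–48 hours. FACS gates were set low and high (top ~1%) using anti-HA fluorescence for expression and streptavidin fluorescence for binding of the Sf9 membrane reagent. Each polyreactivity label is drawn from the gate of origin.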

| Sequence | polyreactivity (PSR sort gate) |
| --- | --- |
| QVQLVESGGGIVQAGGSLRLTCAASGYIFYSYAMGWYRHAPGKERELVATISSGGSTYYADSVKGRFTISRDNAKNTVYFQMNSLKPEDTAVYYCATDHDIVYNFNRYDYWGQGTQVTVSS | low polyreactivity |
| QVQLVESGGGLVQAGGSLRLSCAASGFTFTYNTMGWYRQAPGKERELVAAISALGTSTYYADSVKGRFTISRDNAKNTVYLQMNSLKPEDTEVYYCAAAYRIGSGYWGQGTQVTVSS | high polyreactivity |
| QVQLVESGGGLVQAGGSLRLSCAASGSIFRVYAMGWYRQAPGKEREFLAAITTRGGSTYYADSVKGRFTISRDNAKNTVYLQMNSLKPEDTAVYYCAARGWVSAYYGYDYWGQGTQVTVSS | high polyreactivity |
| QVQLVESGGGLVQAGGSLRLSCAASGSTIVRYAMGWYRQAPGKERELVAAISSRGGSTYYADSVKGRFTNSRDNAKNTVYLQMNSLKAEDTGVYYCAAAQRCTNAYRVGSWGLGTQVTVSS | high polyreactivity |
| QVQLVESGGGLVQAGGSLRLSCAASGSILYIYAMGWYRQAPGKERELVAAISKNSADTYYADSVKGRFTISRDNAKNTVYLQMNSLKPEDTAVYYCAADVVKVAAYNYWGQGSQVTVSS | low polyreactivity |
| QVQLVESGGGLVQAGGSLRLSCAASGSTFKPYTMGWYRQAPGKERELVAGISSVDSTDYADSVKGRFTISRDNAKNTVYLQMNSLKPEDTAVYYCNKRKWPTFTYAMNYWGQGTQVSVSS | low polyreactivity |
| QVQLVESGGGLVQAGGSLRLSCAASGSTLSQNAMGWSRQAPGKEREFVADISGSGDSTYYADSVKGRITISRDNAKNTVYLQMNSLKPEDTAVYYCAAEELSHYEYWGKGTQVTVSS | low polyreactivity |
| QVQLVESGGGLVQAGGSLRLSCAASGGIFTIYAMGWYRQAPGKETELVASITGGSGSTYYADSVKGRFTISRDNAKNTVYLQMNSLKPEDTAVYYCARETYRRYGAYDYWGQGTQVTVSS | low polyreactivity |
| QVQLVESGGVLVQAGGSLRLSCAASGLDYYAIGWYRQAPGKERELVAAIDWSGVSTYYADSVKGRFTISRDNAKNTVYLQMNSLKPEDTAVDYCAALYYGWPRVSYGLGEYGYWGQGTQVTVSS | low polyreactivity |
| QVQRVDSGGGLVQAGGSLRLSCAASGITFTLYDMGWYRQAPGKERELVASITSDGSTDYADSVKGRFTISRDNAKNTVYLQMISLKPEDTAVYYCNARVTYSWYRFGRSGDDSWGQGTQVTVSS | low polyreactivity |
| QVQLVESGGGLVQAGGSLRLSCAASGRTFISYAMGWYRQAPGKERELVAGISRGGSTYYADSVKGRFTISRDNAMNTVYLQMNRLKPEDTAVYYCAARRWISSHSYKYGYWGQGTQVTVSS | high polyreactivity |
| QVQLVESGGGLVQAGGSLRLSCAASGSIFVTYAMGWYRQAPGKERELVAAITWNGGSTYYADSVKGRFTISRDNAKNTVYLQMNSLKPEDTAVYYCAADSRYRGNYWGQGTQVTVSS | high polyreactivity |
| QVQLVESGGGLVQAGGSLRLSCAASGNIFPRYAMGLYRQAPGKERELVAAITWRTSSTYYADSVKGRFTISRDNAKNTVYLQMNSLKPEDTAVYFCAKTSSRIAGEYWGQGTQVTVSS | low polyreactivity |
| QVQLVESGGGLVQAGCSLRLSCAASGSIFARYAMGWSRQAPGKERELVAAINSTVSTNYADSVKGRFTISRDNAKNTVYLQMNSLKTEDTAVYYCAVDIVRGGRDSWGQGTQVTVSS | low polyreactivity |
| QVQLVESGRGLVQAGGSLRLTGAASGRIFGLYAMGWYRHAPGKERELVAAISRRGGTTYYADSVQGRFTISRDNAKNTVDLQMNSLKPEDTAVYYCAAATVYLSWYYWGQGTQVTVSS | high polyreactivity |
| QVQLVEAGGGLVQAGGSLRLSCAASGRTFSFNAMGCYRQAPGKERELVAAISRRGTSTYYADSVKGRFTISRDNAKNSVYLQMNSLKPEYTAVYYCAARSTYTRREYDYWGQGTQVTVSS | high polyreactivity |
| QVQLVESGGGLVQAGGSLRLSCAASGRTFPWYVMGWYRQAPGKERELVAAISSGGGKYYADSVKGRFTISRDNAKNTVFLQMNSLKPEDTAVYYCAGRLYYRRSFVREMYYWGQGSQVTVSS | high polyreactivity |
| QVQLVESGGGIVQAGGSLRLSCAASGSIFHYYAMGWYRQAPGKESELVAAISWSGGRTNYADSVKGRFTISRDNAKNTVYLQMNSLKPEDTAVYYCAAAERSFSGGGKIGKYYYWGQGTQVTVSS | high polyreactivity |
| QVQLVESGGGLVQAGGSLRLSCAASGSIFRWNAMGWYIQAPGKERELVAAIDSGGSTYADSVKGRFTISRDNAKNTVYLQMNSLKPDDTAVYYCAAEIPDEWPYDYWGQGTQVTVSS | low polyreactivity |
| QVQIVESGGGLVQAGGSLRLRCADSGRIFVRYAMGGYIQSPGKDRELVAGITSGSRTNYADSVKGRFTISRDNAKNTVYLQMNSLKPEDTAVYYCAKRYLRYSRLGNYWGQGTQVTVSS | high polyreactivity |
| QVQLVESGGGLVQAGGSLRLSCAASGSIFHDNAMGWYRQAPGKERELVAAITTSGGNTYYADSVKGRFTISRDNAKNTVYLQMNSLKPEDTAVYYCAADTLGKYDYWGQGTQVTVSS | low polyreactivity |
| QVQLVESGGGLVQAGGSLRLSCAASGSIFGRNDMGWYRQAPGKERELVAAISGDTTTNYADSVKGRFTISRDNAKNTVYLQMNSLKPEDTAVYYCNRYSGGRWYPEYYYWGQGTQVTVSS | high polyreactivity |

| Sequence | polyreactivity (PSR sort gate) |
| --- | --- |
| QVQLVESGGGLVQAGGSLRLSCAASGSTFYPYAMGWYRQAPGKERELVAAISSGGSTSYADSVKGRFTISRDNAKNTFYLQMNSLKPEDTAVYYCNASSPGAVPVYDYDYWGQGTQVTVSS | low polyreactivity |
| QVQLVESGGGLVQAGGSLRLSCAASGSIFSVNSMGWYRPAPGKERELVATIRTGDSTNYADSVKGRFTISRDNAKNTVYLQMNSLKPEDTAVYYCAAEWSSLNFDYWGHGTQVTVSS | low polyreactivity |
| QVKLVESGGGLVQAGGSLRLICAASGRISQSNAMGRYRQAPGKERELVAAISWRGGSTYYADSVMGRFTISRDNAKNTVYLQMNSLKPEDTAVYYSAVRGKYDRHYYWGQGTQVTVSS | high polyreactivity |
| QVQLVESGGGLVQAGGSLRLSCAASGFTYSKNAMGWDRQAPAKERELVAVITRRGGSTYYADSVKGRFTISRDNAKNTVYLQMNSLKPEDTAVYYCAAASFTRRDLDYWGQGTQVTVSS | high polyreactivity |
| QVQLVESGGGLVQAGGSLRLSCAASGSIFVYYTMGWYRQSPGKEREMVAAITYSGGSKYYADSVKGRFTISRDNAKNTVYLQMNRLKPEDTAVYYCNAKSAAHRYVRRHDYWGQGTQVTVSW | low polyreactivity |
| QVQLVESGGGLVQAGGSLRLSCAASGRTFWNYAMGCYRQAPGKERELVAAISSSGGTTYYADSVKGRFTISRDNAKNTVYLQMNTLKPEDTAVYYCAATGVSKPQRSFGYWGQGTQVTVSS | low polyreactivity |
| QVQHVESGGGLVQAGGSLRLSCAASVITFYGYTMGWYRQAPGKERELVARIRSRSTSTYYADSVKGRFTISRDNAKNTVDLQMNSLKPEDTAVYYCNADYTNPGSYRKYDYWGQGTQVTVSS | low polyreactivity |
| QVPIVESGGGLVQAGGSLRLSCAAYGIIFRLNAMGWNTQAPGKERELVAAITRRGGTTYYADSVKGRFTISRDNAKNTVYLQMNSLKPEDTAVYYCNTFYYWQYDWGQGTQVTESS | high polyreactivity |
| QVQLVESGGGLVQAGGSLRLSCAASGSIFPLYAMGWYRQAPGKERELDASITWSAGNTHYADSVKGRFTISRDNAKNTVYLQMNSLKPEDTAVYYCAADDLWLYYVDDLPINDFDYWGQGTQVTVSS | low polyreactivity |
| QVQLVESGGGLVQAGGSLRLSCAASGRILRGNAMGWYRQAPGKEREFFAAIRRSGGTSYYADSVKGRFTISRDNAKNTVYLQMNSLKPEDTAVYYCAATKYQTSGDRGYEHWGQGTQVTVSS | low polyreactivity |
| QVQLVESGGGLVQAGGSLRLSCAAAGLISIRILMGWYRQAPGKERELVAGITSTGSTSYADSVKGRFTSSRDNAKNTVYLQMNSLKPEDTAVYYCNTKGSRPGIWPTTSGYWGHGTQVTVSS | high polyreactivity |
| QVQLVESGGGLVQAGGSLRLSCAASGSTFDKKAMGWYRQAPGKERELVAAITWRGGRTYYADSVKGRFTISRDNAKNTVYLQLNSLKPEDTAVYYCNKVSWEQMDYWGQGTQVTVSS | low polyreactivity |
| QVQLVESGGGLVQAGGSLRLSCAASGRIFSVKVMGWYRQAPGKERELVAAITWSVGSTYYADSVKGRFTISRDNPKNTVSLQMNSLKREDTAVYYCAARGPPVYGRVGGYHYWGQGTQVTVSS | low polyreactivity |
| QVQLVESGGGLVQAGGSLRLSCAASGFAFSYYAMGWSRQAPGKEREFVASIDWSGGSTYYADSVKGRFTISRDNAKNTVYLQMNSLKPEDTAVYYCAAELDYFPGYDYWGQGTQVTVSS | low polyreactivity |
| QVQLEESGGGLVQAGGSLRLSCAASGRIFGRNARGWYRQAPVKERELVAAISWRGGNTYYADSVKGRFTISRDNAKNTVYLQMKSLKAEDTAFYYCNTVQSRNEMGYWGQGTQVTVSS | high polyreactivity |
| QVEVVESGGGLVQAGGSLRLSCAASGRNFRFNAMGWYRQAPGKERELVAAISFRGGSTYYADTVKGRFTISRDNAKNTVYGQINSLKPEDPAVYYCAARARTGTYRDMYYWGQGTQVTVSS | high polyreactivity |
| QVQLVESGGGLVQAGGSLRLSCAASGFTFAKYAMGWYRQAPGKERELVAAISSSGGRTYYADSVQGRFTLSRDNAKNTDYLQMNSLKPEDTAVYYCAADFSGPFDYWGQGTQVTVSS | high polyreactivity |
| QLQLVESGGGLVQAGGSLRLSCAASGGTFQPNAMGWYIQAPGKESELVAAISWSDGSTYYADSVKGRFTISRDYAKNTVYLQMNSLKPEDTAVDYCAADFTYYDSPYRDYNYESWGQGTQVTVSS | low polyreactivity |
| QVQLVESGGCLVQAGGTLRLSCAASGRIFVSYVMGWYSQAPGKEREFVAAIRRSGSSTYYADSVKGRFTISRDNEKNTVYLQMNSLKPEDTAVFYCAAYQRSRTLRRYDYWGQGTEVTVSS | high polyreactivity |
| QVQLVESGGGLVQAGGSLRLSCAASGSIFYSNVMGWYRQATGKERELVAAIRYSGVGTYYADSVKGRFTISRDNAKNTVYLQMNSLKPEDTAVYYSNAVTKVGYLRRRDYWGQGTQVTVSS | low polyreactivity |
| QVQLVESGGGLGQAGGSLRLSCAASGRTFTYNAMGWYRQAPGKERELVAAISYSGGRTYYADSVKGRFTISRDNAKNTVYLQMNSLKPEDTAVYYCARAYLGYYGRTYEYWGQGTQVTVSS | high polyreactivity |
